Key:
[1] = biological target: T1, Mfd (Escherichia coli, UniProt P30958 1-1148); assay: SPR; 0.5 mM ATPgS; SPR: 30 mM Tris/HCl pH 7.6, 40 mM KCl, 5 mM MgCl2, 0.005% P20, 0.25 mM EDTA, 0.5 mM DTT, 0.5 mM ATPgS, 20 C; smFRET: 20 mM Tris/HCl pH 8.0, 40 mM KCl, 5 mM MgCl2, 1 mM 2-mercaptoethanol; conditions: protein: recombinant, tags: none stated
[2] = biological target: Mfd(R953A) (Escherichia coli, UniProt P30958 1-1148, R953A); assay: as above; conditions: protein: recombinant; tags: none stated; label: 5' biotin on AS18; 5' overhang 6 nt (template)
[3] = biological target: Mfd;RNAP core (Escherichia coli;Escherichia coli, UniProt P30958;P0A7Z4;P0A8V2;P0A8T7;P0A800 1-1148;1-329;1-1342;1-1407;2-91, |); assay: SPR; 0.5 mM ATPgS; Mfd titrated onto immobilized RNAP EC; SPR: 30 mM Tris/HCl pH 7.6, 40 mM KCl, 5 mM MgCl2, 0.005% P20, 0.25 mM EDTA, 0.5 mM DTT, 0.5 mM ATPgS, 20 C; smFRET: 20 mM Tris/HCl pH 8.0, 40 mM KCl, 5 mM MgCl2, 1 mM 2-mercaptoethanol; conditions: protein: recombinant;recombinant; tags: none stated;His; copies: 1;2;1;1;1; label: 3' bioTEG on NT; iCy3 on TS; transcription bubble with RNA:DNA hybrid
[4] = biological target: T1, Mfd; assay: SPR; ATPgS; SPR: 30 mM Tris/HCl pH 7.6, 40 mM KCl, 5 mM MgCl2, 0.005% P20, 0.25 mM EDTA, 0.5 mM DTT, 0.5 mM ATPgS, 20 C; smFRET: 20 mM Tris/HCl pH 8.0, 40 mM KCl, 5 mM MgCl2, 1 mM 2-mercaptoethanol; conditions: protein: recombinant; tags: none stated; label: 3' bioTEG on NT; 9-nt non-complementary bubble (dT9 in NT); blunt ends

B1: bio_dT40_S18 58-mer ssDNA (ssDNA)
DNA: TTTTTTTTTTTTTTTTTTTTTTTTTTTTTTTTTTTTTTTTGCCTCGCTGCCGTCGCCA
For B1, the Kd ([1]; label: 5' biotin, single strand) was about 4000 nM.

B2: Cy3_dT40_S18:bio_AS18_Cy5 (dsDNA)
DNA 1: B1 DNA
DNA 2: TGGCGACGGCAGCGAGGC
B2 gave a Kd ([1]; label: 5' Cy3, 5' biotin and 3' Cy5 on AS18, 18 bp with 5' overhang 40 nt) of 390 ± 10 nM.

B3: dT40_S18:bio_AS18 (dsDNA)
DNA 1: B1 DNA
DNA 2: TGGCGACGGCAGCGAGGC
Binder B3 has a Kd ([1]; label: 5' biotin on AS18, 18 bp with 5' overhang 40 nt) of 300 ± 10 nM.

B4: dT6_S18:bio_AS18 (dsDNA)
DNA 1: TTTTTTGCCTCGCTGCCGTCGCCA
DNA 2: TGGCGACGGCAGCGAGGC
For B4, the binding signal [2] was 2.3 fold weaker Kd than wild type.

B5: NT_49_bio:TS_49 (dsDNA)
DNA 1: CACTACTGCGACTTACAGACATCGAGAGGGTAATGGCGAATAGCACTGA
DNA 2: TCAGTGCTATTCGCCATTACCCTCTCGATGTCTGTAAGTCGCAGTAGTG
modifications: internal Cy3 in TS_49 after nt 31
In the case of B5, the Kd ([1]; label: 3' bioTEG on NT, iCy3 on TS, blunt) is reported as 170 ± 20 nM.

B6: EC scaffold 49-mer (TS_49:NT_49_bio:RNA_15) (mixed)
DNA 1: B5 DNA 2
DNA 2: B5 DNA 1
RNA: AUAUAUAUCGAGAGG
modifications: internal Cy3 in TS_49 after nt 31
B6 gave a Kd [3] of 127 ± 6 nM.

B7: 49-mer with 9-nt bubble (NT_49_bio_bubble:TS_49) (dsDNA)
DNA 1: CACTACTGCGACTTACAGACTTTTTTTTTGTAATGGCGAATAGCACTGA
DNA 2: B5 DNA 2
Binder B7 has a Kd [4] of 395 ± 7 nM.

B8: S18:bio_AS18 (dsDNA)
DNA 1: GCCTCGCTGCCGTCGCCA
DNA 2: TGGCGACGGCAGCGAGGC
In the case of B8, the Kd ([1]; label: 5' biotin on AS18, blunt) is reported as 90 ± 4 nM.

B9: dT15_S18:bio_AS18 (dsDNA)
DNA 1: TTTTTTTTTTTTTTTGCCTCGCTGCCGTCGCCA
DNA 2: TGGCGACGGCAGCGAGGC
Binder B9 has a Kd ([1]; label: 5' biotin on AS18, 5' overhang 15 nt (template)) of 220 ± 10 nM.

Source: paper PMC9177983, “Mechanism of transcription modulation by the transcription-repair coupling factor”
